Experiments:
ErbB4 (HER4) = target: T1, ErbB4 (HER4) (UniProt Q15303 26-651, limits assumed); test: not described
T1 sequence (looked up): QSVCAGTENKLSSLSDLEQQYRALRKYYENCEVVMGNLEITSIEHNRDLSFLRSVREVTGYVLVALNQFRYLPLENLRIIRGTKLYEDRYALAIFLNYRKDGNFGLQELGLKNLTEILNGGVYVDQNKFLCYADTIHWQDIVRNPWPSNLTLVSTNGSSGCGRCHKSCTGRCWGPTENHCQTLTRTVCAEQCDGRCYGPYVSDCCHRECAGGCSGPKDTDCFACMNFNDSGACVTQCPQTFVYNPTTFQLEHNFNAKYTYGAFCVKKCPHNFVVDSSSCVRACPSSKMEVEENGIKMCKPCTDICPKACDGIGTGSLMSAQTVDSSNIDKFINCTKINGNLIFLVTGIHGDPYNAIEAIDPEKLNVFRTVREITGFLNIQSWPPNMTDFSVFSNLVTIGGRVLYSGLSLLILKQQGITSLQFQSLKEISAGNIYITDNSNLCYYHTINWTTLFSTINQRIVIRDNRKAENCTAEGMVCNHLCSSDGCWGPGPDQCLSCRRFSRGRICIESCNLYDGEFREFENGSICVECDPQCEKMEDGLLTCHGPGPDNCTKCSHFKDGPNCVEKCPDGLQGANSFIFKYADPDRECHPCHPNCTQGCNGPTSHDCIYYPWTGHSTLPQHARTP

ErbB3 (HER3) = target: T2, ErbB3 (HER3) (human, UniProt P21860 20-1342); test: not described
T2 construct: whole, on cells
T2 sequence (P21860 20-1342): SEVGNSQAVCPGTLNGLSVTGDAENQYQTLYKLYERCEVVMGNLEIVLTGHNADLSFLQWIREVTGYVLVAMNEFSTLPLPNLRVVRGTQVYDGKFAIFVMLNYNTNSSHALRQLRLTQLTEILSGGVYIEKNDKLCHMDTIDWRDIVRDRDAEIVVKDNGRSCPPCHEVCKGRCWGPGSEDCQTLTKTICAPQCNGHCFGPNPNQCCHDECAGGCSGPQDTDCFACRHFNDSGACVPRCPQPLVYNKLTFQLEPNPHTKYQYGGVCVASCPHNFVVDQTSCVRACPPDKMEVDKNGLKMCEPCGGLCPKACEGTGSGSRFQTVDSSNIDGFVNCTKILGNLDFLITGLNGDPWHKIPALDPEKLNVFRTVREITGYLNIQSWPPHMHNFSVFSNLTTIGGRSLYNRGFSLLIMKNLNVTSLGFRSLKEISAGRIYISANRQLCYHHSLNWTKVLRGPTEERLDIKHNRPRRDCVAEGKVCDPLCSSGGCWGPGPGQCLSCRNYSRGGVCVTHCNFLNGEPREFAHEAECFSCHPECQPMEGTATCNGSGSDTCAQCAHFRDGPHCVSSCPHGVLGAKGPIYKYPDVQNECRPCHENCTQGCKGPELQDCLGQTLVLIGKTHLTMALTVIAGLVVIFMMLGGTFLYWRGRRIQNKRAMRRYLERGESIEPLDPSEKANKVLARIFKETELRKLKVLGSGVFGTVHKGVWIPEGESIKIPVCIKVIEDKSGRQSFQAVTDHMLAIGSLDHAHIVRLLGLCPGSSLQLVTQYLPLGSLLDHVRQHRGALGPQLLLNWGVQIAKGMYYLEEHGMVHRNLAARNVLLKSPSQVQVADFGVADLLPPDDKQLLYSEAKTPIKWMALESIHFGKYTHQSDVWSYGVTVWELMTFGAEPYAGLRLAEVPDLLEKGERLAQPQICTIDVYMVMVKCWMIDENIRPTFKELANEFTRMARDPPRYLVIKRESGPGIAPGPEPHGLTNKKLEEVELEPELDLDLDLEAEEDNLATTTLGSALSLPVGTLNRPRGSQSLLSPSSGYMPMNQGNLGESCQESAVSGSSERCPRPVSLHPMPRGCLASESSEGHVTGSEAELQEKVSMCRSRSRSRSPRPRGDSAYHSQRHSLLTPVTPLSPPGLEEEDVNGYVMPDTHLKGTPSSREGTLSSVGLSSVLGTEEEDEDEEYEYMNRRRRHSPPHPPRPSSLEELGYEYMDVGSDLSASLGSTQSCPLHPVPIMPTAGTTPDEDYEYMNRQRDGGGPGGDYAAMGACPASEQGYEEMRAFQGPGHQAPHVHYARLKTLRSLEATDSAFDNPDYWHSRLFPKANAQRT

B1: murine monoclonal antibody 2C4 (antibody, V domains shown)
VH: EVQLQQSGPELVKPGTSVKISCKASGFTFTDYTMDWVKQSHGKSLEWIGDVNPNSGGSIYNQRFKGKASLTVDRSSRIVYMELRSLTFEDTAVYYCARNLGPSFYFDYWGQGTTLTVSS
VL: DTVMTQSHKIMSTSVGDRVSITCKASQDVSIGVAWYQQRPGQSPKLLIYSASYRYTGVPDRFTGSGSGTDFTFTISSVQAEDLAVYYCQQYYIYPYTFGGGTKLEIK
notes: also called mu 2C4; intact murine 2C4
- binding result (ErbB4 (HER4)): no binding
- binding result (ErbB3 (HER3)): no binding

— patent publication US7501122 (Genentech, dated 2009)
